Measured values published in patent US20240123070A1 (SHANGHAI GENBASE BIOTECHNOLOGY, published 2024).

B1: B8.2.4 TCR mutant β97V-T (TCR, V domains shown)
V domain 1: AQKITQTQPGMFVQEKEAVTLDCTYDTSDPSYGLFWYKQPSSGEMIFLIYQGSYDQQNATEGRYSLNFQKARKSANLVISASQLGDSAMYFCAMRERTGTASKLTFGTGTRLQVTL
V domain 2: DVKVTQSSRYLVKRTGEKVFLECVQDMDHENMFWYRQDPGLGLRLIYFSYDVKMKEKGDIPEGYSVSREKKERFSLILESASTNQTSMYLCASSQTTPPQHFGDGTRLSILE
B2: B8.2.4 TCR mutant β98P-R (TCR, V domains shown)
V domain 1: AQKITQTQPGMFVQEKEAVTLDCTYDTSDPSYGLFWYKQPSSGEMIFLIYQGSYDQQNATEGRYSLNFQKARKSANLVISASQLGDSAMYFCAMRERTGTASKLTFGTGTRLQVTL
V domain 2: DVKVTQSSRYLVKRTGEKVFLECVQDMDHENMFWYRQDPGLGLRLIYFSYDVKMKEKGDIPEGYSVSREKKERFSLILESASTNQTSMYLCASSQTVRPQHFGDGTRLSILE
B3: B8.2.4 TCR mutant β98P-C (TCR, V domains shown)
V domain 1: AQKITQTQPGMFVQEKEAVTLDCTYDTSDPSYGLFWYKQPSSGEMIFLIYQGSYDQQNATEGRYSLNFQKARKSANLVISASQLGDSAMYFCAMRERTGTASKLTFGTGTRLQVTL
V domain 2: DVKVTQSSRYLVKRTGEKVFLECVQDMDHENMFWYRQDPGLGLRLIYFSYDVKMKEKGDIPEGYSVSREKKERFSLILESASTNQTSMYLCASSQTVCPQHFGDGTRLSILE
B4: B8.2.4 TCR mutant β98P-M (TCR, V domains shown)
V domain 1: AQKITQTQPGMFVQEKEAVTLDCTYDTSDPSYGLFWYKQPSSGEMIFLIYQGSYDQQNATEGRYSLNFQKARKSANLVISASQLGDSAMYFCAMRERTGTASKLTFGTGTRLQVTL
V domain 2: DVKVTQSSRYLVKRTGEKVFLECVQDMDHENMFWYRQDPGLGLRLIYFSYDVKMKEKGDIPEGYSVSREKKERFSLILESASTNQTSMYLCASSQTVMPQHFGDGTRLSILE
B5: B8.2.4 TCR mutant β98P-G (TCR, V domains shown)
V domain 1: AQKITQTQPGMFVQEKEAVTLDCTYDTSDPSYGLFWYKQPSSGEMIFLIYQGSYDQQNATEGRYSLNFQKARKSANLVISASQLGDSAMYFCAMRERTGTASKLTFGTGTRLQVTL
V domain 2: DVKVTQSSRYLVKRTGEKVFLECVQDMDHENMFWYRQDPGLGLRLIYFSYDVKMKEKGDIPEGYSVSREKKERFSLILESASTNQTSMYLCASSQTVGPQHFGDGTRLSILE
B6: B8.2.4 TCR mutant β98P-I (TCR, V domains shown)
V domain 1: AQKITQTQPGMFVQEKEAVTLDCTYDTSDPSYGLFWYKQPSSGEMIFLIYQGSYDQQNATEGRYSLNFQKARKSANLVISASQLGDSAMYFCAMRERTGTASKLTFGTGTRLQVTL
V domain 2: DVKVTQSSRYLVKRTGEKVFLECVQDMDHENMFWYRQDPGLGLRLIYFSYDVKMKEKGDIPEGYSVSREKKERFSLILESASTNQTSMYLCASSQTVIPQHFGDGTRLSILE
B7: B8.2.4 TCR mutant β98P-L (TCR, V domains shown)
V domain 1: AQKITQTQPGMFVQEKEAVTLDCTYDTSDPSYGLFWYKQPSSGEMIFLIYQGSYDQQNATEGRYSLNFQKARKSANLVISASQLGDSAMYFCAMRERTGTASKLTFGTGTRLQVTL
V domain 2: DVKVTQSSRYLVKRTGEKVFLECVQDMDHENMFWYRQDPGLGLRLIYFSYDVKMKEKGDIPEGYSVSREKKERFSLILESASTNQTSMYLCASSQTVLPQHFGDGTRLSILE
B8: B8.2.4 TCR mutant β98P-H (TCR, V domains shown)
V domain 1: AQKITQTQPGMFVQEKEAVTLDCTYDTSDPSYGLFWYKQPSSGEMIFLIYQGSYDQQNATEGRYSLNFQKARKSANLVISASQLGDSAMYFCAMRERTGTASKLTFGTGTRLQVTL
V domain 2: DVKVTQSSRYLVKRTGEKVFLECVQDMDHENMFWYRQDPGLGLRLIYFSYDVKMKEKGDIPEGYSVSREKKERFSLILESASTNQTSMYLCASSQTVHPQHFGDGTRLSILE
B9: B8.2.4 TCR mutant β98P-E (TCR, V domains shown)
V domain 1: AQKITQTQPGMFVQEKEAVTLDCTYDTSDPSYGLFWYKQPSSGEMIFLIYQGSYDQQNATEGRYSLNFQKARKSANLVISASQLGDSAMYFCAMRERTGTASKLTFGTGTRLQVTL
V domain 2: DVKVTQSSRYLVKRTGEKVFLECVQDMDHENMFWYRQDPGLGLRLIYFSYDVKMKEKGDIPEGYSVSREKKERFSLILESASTNQTSMYLCASSQTVEPQHFGDGTRLSILE
B10: B8.2.4 TCR mutant β98P-A (TCR, V domains shown)
V domain 1: AQKITQTQPGMFVQEKEAVTLDCTYDTSDPSYGLFWYKQPSSGEMIFLIYQGSYDQQNATEGRYSLNFQKARKSANLVISASQLGDSAMYFCAMRERTGTASKLTFGTGTRLQVTL
V domain 2: DVKVTQSSRYLVKRTGEKVFLECVQDMDHENMFWYRQDPGLGLRLIYFSYDVKMKEKGDIPEGYSVSREKKERFSLILESASTNQTSMYLCASSQTVAPQHFGDGTRLSILE
B11: B8.2.4 TCR mutant β98P-K (TCR, V domains shown)
V domain 1: AQKITQTQPGMFVQEKEAVTLDCTYDTSDPSYGLFWYKQPSSGEMIFLIYQGSYDQQNATEGRYSLNFQKARKSANLVISASQLGDSAMYFCAMRERTGTASKLTFGTGTRLQVTL
V domain 2: DVKVTQSSRYLVKRTGEKVFLECVQDMDHENMFWYRQDPGLGLRLIYFSYDVKMKEKGDIPEGYSVSREKKERFSLILESASTNQTSMYLCASSQTVKPQHFGDGTRLSILE
B12: B8.2.4 TCR mutant β98P-D (TCR, V domains shown)
V domain 1: AQKITQTQPGMFVQEKEAVTLDCTYDTSDPSYGLFWYKQPSSGEMIFLIYQGSYDQQNATEGRYSLNFQKARKSANLVISASQLGDSAMYFCAMRERTGTASKLTFGTGTRLQVTL
V domain 2: DVKVTQSSRYLVKRTGEKVFLECVQDMDHENMFWYRQDPGLGLRLIYFSYDVKMKEKGDIPEGYSVSREKKERFSLILESASTNQTSMYLCASSQTVDPQHFGDGTRLSILE
B13: B8.2.4 TCR mutant β97V-Y (TCR, V domains shown)
V domain 1: AQKITQTQPGMFVQEKEAVTLDCTYDTSDPSYGLFWYKQPSSGEMIFLIYQGSYDQQNATEGRYSLNFQKARKSANLVISASQLGDSAMYFCAMRERTGTASKLTFGTGTRLQVTL
V domain 2: DVKVTQSSRYLVKRTGEKVFLECVQDMDHENMFWYRQDPGLGLRLIYFSYDVKMKEKGDIPEGYSVSREKKERFSLILESASTNQTSMYLCASSQTYPPQHFGDGTRLSILE
B14: B8.2.4 TCR mutant β97V-W (TCR, V domains shown)
V domain 1: AQKITQTQPGMFVQEKEAVTLDCTYDTSDPSYGLFWYKQPSSGEMIFLIYQGSYDQQNATEGRYSLNFQKARKSANLVISASQLGDSAMYFCAMRERTGTASKLTFGTGTRLQVTL
V domain 2: DVKVTQSSRYLVKRTGEKVFLECVQDMDHENMFWYRQDPGLGLRLIYFSYDVKMKEKGDIPEGYSVSREKKERFSLILESASTNQTSMYLCASSQTWPPQHFGDGTRLSILE
B15: B8.2.4 TCR mutant β98P-F (TCR, V domains shown)
V domain 1: AQKITQTQPGMFVQEKEAVTLDCTYDTSDPSYGLFWYKQPSSGEMIFLIYQGSYDQQNATEGRYSLNFQKARKSANLVISASQLGDSAMYFCAMRERTGTASKLTFGTGTRLQVTL
V domain 2: DVKVTQSSRYLVKRTGEKVFLECVQDMDHENMFWYRQDPGLGLRLIYFSYDVKMKEKGDIPEGYSVSREKKERFSLILESASTNQTSMYLCASSQTVFPQHFGDGTRLSILE
B16: B8.2.4 TCR mutant β98P-N (TCR, V domains shown)
V domain 1: AQKITQTQPGMFVQEKEAVTLDCTYDTSDPSYGLFWYKQPSSGEMIFLIYQGSYDQQNATEGRYSLNFQKARKSANLVISASQLGDSAMYFCAMRERTGTASKLTFGTGTRLQVTL
V domain 2: DVKVTQSSRYLVKRTGEKVFLECVQDMDHENMFWYRQDPGLGLRLIYFSYDVKMKEKGDIPEGYSVSREKKERFSLILESASTNQTSMYLCASSQTVNPQHFGDGTRLSILE

target: KRAS G13D antigen (G13D-RT6, SEQ ID NO: 20) loaded on Lovo-DPA0301:DPB0501 cells (human); assay: cell-based or functional assay

First: B1
Second: B2
The “TCR Mut RLU/WT RLU” value of the first is higher: 0.98 ratio for the first, 0.73 ratio for the second.

Going from B3 to B4, the “TCR Mut RLU/WT RLU” value falls from 1.11 ratio to 0.83 ratio.

Compared with B5, B6 is lower in “TCR Mut RLU/WT RLU” value: 0.73 ratio for the first, 0.33 ratio for the second.

Going from B7 to B8, the “TCR Mut RLU/WT RLU” value falls from 0.67 ratio to 0.6 ratio.

Going from B9 to B10, the “TCR Mut RLU/WT RLU” value falls from 0.99 ratio to 0.5 ratio.

Compared with B11, B12 is higher in “TCR Mut RLU/WT RLU” value: 0.47 ratio for the first, 0.8 ratio for the second.

Going from B13 to B14, the “TCR Mut RLU/WT RLU” value falls from 0.54 ratio to 0.52 ratio.

Going from B15 to B16, the “TCR Mut RLU/WT RLU” value falls from 0.96 ratio to 0.41 ratio.
